The target in experiment [1] is T1, recombinant TLR4 protein.
T1 construct: also called Toll-like receptor 4
Description: competition ELISA: peptide titrated from 50 µM to 3.05 nM against MD2 (50 nM) on plate-coated TLR4; competitor MD2. (ELISA stands for enzyme-linked immunosorbent assay.)

Experiment [2] has as its target T1, recombinant TLR4 protein. Description: competition ELISA: TLR4 coated (2 µg/mL), MD2 (50 nM) mixed with titrated peptide, residual bound MD2 detected with anti-MD2 and anti-mouse IgG-HRP, OD450; competed ligand: MD2.

The values below come from US20170260241A1 (KEMYTH BIOTECH, published 2017).

QDLTAHFTTSIPLKGNVRNLSVKIRECTGLAWEWW [N35PLY4 (N-terminal 35 amino acid fragment of C70PLY4, 402-436 amino acid residues)]: in the experiment with recombinant TLR4 protein [1], the Ki (usually the equilibrium dissociation constant of an inhibitor or competing ligand from its target) was 11200 nM.

B1: C70PLY4 (C-terminal 70 amino acid fragment of pneumolysin, 402-471 amino acid residues) (peptide)
peptide: QDLTAHFTTSIPLKGNVRNLSVKIRECTGLAWEWWRTVYEKTDLPLVRKRTISIWGTTLYPQVEDKVEND
Take B1: the Ki with recombinant TLR4 protein [1] was found to be 74.8 nM. In the experiment with recombinant TLR4 protein [2], the “IC50 (read off the curve)” value is around 300 nM.
